Here are results for eleven molecules from patent US20230235012A1 (ALPINE IMMUNE SCIENCES, published 2023).

In test [1] the target is T1, human CTLA-4, full-length, expressed on transfected Expi293 cells (human, UniProt P16410 36-223).
T1 construct: whole, on cells
Kind of test: flow cytometry, 100 nM, Expi293 cells with human CTLA-4. (In flow cytometry, cells or beads pass a laser one at a time.)

In test [2] the target is T2, human CD28, full-length, expressed on transfected Expi293 cells (human, UniProt P10747 19-220).
T2 construct: whole, on cells
Kind of test: flow cytometry, 100 nM, Expi293 cells with human CD28.

In test [3] the target is T3, human ICOS, full-length, expressed on transfected Expi293 cells (human, UniProt Q9Y6W8 21-199).
T3 construct: whole, on cells
T3 sequence (looked up): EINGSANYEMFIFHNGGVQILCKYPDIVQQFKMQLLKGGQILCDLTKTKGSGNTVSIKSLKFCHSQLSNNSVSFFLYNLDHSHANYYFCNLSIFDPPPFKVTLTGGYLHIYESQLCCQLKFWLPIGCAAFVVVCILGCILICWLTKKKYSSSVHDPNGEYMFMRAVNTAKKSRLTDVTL
Kind of test: flow cytometry, 100 nM, Expi293 cells with human ICOS.

T1 sequence (P16410 36-223): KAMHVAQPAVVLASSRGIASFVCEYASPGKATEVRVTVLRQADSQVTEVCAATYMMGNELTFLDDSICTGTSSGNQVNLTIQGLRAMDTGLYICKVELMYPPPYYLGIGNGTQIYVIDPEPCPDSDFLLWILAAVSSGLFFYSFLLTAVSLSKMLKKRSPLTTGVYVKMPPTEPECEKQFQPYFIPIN

B1: wild-type ICOSL IgV-Fc fusion (Fc fusion)
chain: DTQEKEVRAMVGSDVELSCACPEGSRFDLNDVYVYWQTSESKTVVTYHIPQNSSLENVDSRYRNRALMSPAGMLRGDFSLRLFNVTPQDEQKFHCLVLSQSLGFQEVLSVEVTLHVAANFSVGSGGGGSEPKSSDKTHTCPPCPAPEAEGAPSVFLFPPKPKDTLMISRTPEVTCVVVDVSHEDPEVKFNWYVDGVEVHNAKTKPREEQYNSTYRVVSVLTVLHQDWLNGKEYKCKVSNKALPAPIEKTISKAKGQPREPQVYTLPPSREEMTKNQVSLTCLVKGFYPSDIAVEWESNGQPENNYKTTPPVLDSDGSFFLYSKLTVDKSRWQQGNVFSCSVMHEALHNHYTQKSLSLSPG
notes: also called WT ICOSL
For the molecule B1, the values for the MFI in test [1], in test [2] and in test [3] were 330000 MFI, 22300 MFI and 212000 MFI, respectively. For the same molecule, the “MFI ratio to WT (ΔWT)” value in test [1], in test [2] and in test [3] was 1 fold each time.

B2: variant ICOSL IgV-Fc fusion N52L/N57H/Q100R (Fc fusion)
chain: DTQEKEVRAMVGSDVELSCACPEGSRFDLNDVYVYWQTSESKTVVTYHIPQLSSLEHVDSRYRNRALMSPAGMLRGDFSLRLFNVTPQDEQKFHCLVLSRSLGFQEVLSVEVTLHVAANFSVGSGGGGSEPKSSDKTHTCPPCPAPEAEGAPSVFLFPPKPKDTLMISRTPEVTCVVVDVSHEDPEVKFNWYVDGVEVHNAKTKPREEQYNSTYRVVSVLTVLHQDWLNGKEYKCKVSNKALPAPIEKTISKAKGQPREPQVYTLPPSREEMTKNQVSLTCLVKGFYPSDIAVEWESNGQPENNYKTTPPVLDSDGSFFLYSKLTVDKSRWQQGNVFSCSVMHEALHNHYTQKSLSLSPG
In the case of B2, the MFI amounted to 353000 MFI in test [1], 141000 MFI in test [2] and 250000 MFI in test [3]. Also, the figures for the “MFI ratio to WT (ΔWT)” value in test [1], in test [2] and in test [3] were 1.07 fold, 6.3 fold and 1.18 fold, respectively.

B3: variant ICOSL IgV-Fc fusion N52A/N57F/Q100S (Fc fusion)
chain: DTQEKEVRAMVGSDVELSCACPEGSRFDLNDVYVYWQTSESKTVVTYHIPQASSLEFVDSRYRNRALMSPAGMLRGDFSLRLFNVTPQDEQKFHCLVLSSSLGFQEVLSVEVTLHVAANFSVGSGGGGSEPKSSDKTHTCPPCPAPEAEGAPSVFLFPPKPKDTLMISRTPEVTCVVVDVSHEDPEVKFNWYVDGVEVHNAKTKPREEQYNSTYRVVSVLTVLHQDWLNGKEYKCKVSNKALPAPIEKTISKAKGQPREPQVYTLPPSREEMTKNQVSLTCLVKGFYPSDIAVEWESNGQPENNYKTTPPVLDSDGSFFLYSKLTVDKSRWQQGNVFSCSVMHEALHNHYTQKSLSLSPG
Regarding B3, the MFI in test [1] came out at 255000 MFI; in test [2], 157000 MFI; in test [3], 242000 MFI. Moreover, the figures for the “MFI ratio to WT (ΔWT)” value in test [1], in test [2] and in test [3] were 0.77 fold, 7 fold and 1.14 fold, respectively.

B4: variant ICOSL IgV-Fc fusion N52G/Q100A (Fc fusion)
chain: DTQEKEVRAMVGSDVELSCACPEGSRFDLNDVYVYWQTSESKTVVTYHIPQGSSLENVDSRYRNRALMSPAGMLRGDFSLRLFNVTPQDEQKFHCLVLSASLGFQEVLSVEVTLHVAANFSVGSGGGGSEPKSSDKTHTCPPCPAPEAEGAPSVFLFPPKPKDTLMISRTPEVTCVVVDVSHEDPEVKFNWYVDGVEVHNAKTKPREEQYNSTYRVVSVLTVLHQDWLNGKEYKCKVSNKALPAPIEKTISKAKGQPREPQVYTLPPSREEMTKNQVSLTCLVKGFYPSDIAVEWESNGQPENNYKTTPPVLDSDGSFFLYSKLTVDKSRWQQGNVFSCSVMHEALHNHYTQKSLSLSPG
As for B4, the values for the MFI in test [2] and in test [3] were 98700 MFI and 303000 MFI, respectively.

B5: variant ICOSL IgV-Fc fusion N52K/N57Y/Q100R (Fc fusion)
chain: DTQEKEVRAMVGSDVELSCACPEGSRFDLNDVYVYWQTSESKTVVTYHIPQKSSLEYVDSRYRNRALMSPAGMLRGDFSLRLFNVTPQDEQKFHCLVLSRSLGFQEVLSVEVTLHVAANFSVGSGGGGSEPKSSDKTHTCPPCPAPEAEGAPSVFLFPPKPKDTLMISRTPEVTCVVVDVSHEDPEVKFNWYVDGVEVHNAKTKPREEQYNSTYRVVSVLTVLHQDWLNGKEYKCKVSNKALPAPIEKTISKAKGQPREPQVYTLPPSREEMTKNQVSLTCLVKGFYPSDIAVEWESNGQPENNYKTTPPVLDSDGSFFLYSKLTVDKSRWQQGNVFSCSVMHEALHNHYTQKSLSLSPG
For the molecule B5, the MFI in test [1] amounted to 233000 MFI; in test [2], 141000 MFI; in test [3] it was 199000 MFI. Further, the figures for the “MFI ratio to WT (ΔWT)” value in test [1], in test [2] and in test [3] were 0.71 fold, 6.3 fold and 0.94 fold, respectively.

B6: variant ICOSL IgV-Fc fusion N52C/N57E/Q100S (Fc fusion)
chain: DTQEKEVRAMVGSDVELSCACPEGSRFDLNDVYVYWQTSESKTVVTYHIPQCSSLEEVDSRYRNRALMSPAGMLRGDFSLRLFNVTPQDEQKFHCLVLSSSLGFQEVLSVEVTLHVAANFSVGSGGGGSEPKSSDKTHTCPPCPAPEAEGAPSVFLFPPKPKDTLMISRTPEVTCVVVDVSHEDPEVKFNWYVDGVEVHNAKTKPREEQYNSTYRVVSVLTVLHQDWLNGKEYKCKVSNKALPAPIEKTISKAKGQPREPQVYTLPPSREEMTKNQVSLTCLVKGFYPSDIAVEWESNGQPENNYKTTPPVLDSDGSFFLYSKLTVDKSRWQQGNVFSCSVMHEALHNHYTQKSLSLSPG
Take B6: the results for the MFI in test [1], in test [2] and in test [3] were 10600 MFI, 13400 MFI and 125000 MFI, respectively. The results for the “MFI ratio to WT (ΔWT)” value in test [1], in test [2] and in test [3] were 0.03 fold, 0.6 fold and 0.59 fold, respectively.

B7: variant ICOSL IgV-Fc fusion N52G/N57V (Fc fusion)
chain: DTQEKEVRAMVGSDVELSCACPEGSRFDLNDVYVYWQTSESKTVVTYHIPQGSSLEVVDSRYRNRALMSPAGMLRGDFSLRLFNVTPQDEQKFHCLVLSQSLGFQEVLSVEVTLHVAANFSVGSGGGGSEPKSSDKTHTCPPCPAPEAEGAPSVFLFPPKPKDTLMISRTPEVTCVVVDVSHEDPEVKFNWYVDGVEVHNAKTKPREEQYNSTYRVVSVLTVLHQDWLNGKEYKCKVSNKALPAPIEKTISKAKGQPREPQVYTLPPSREEMTKNQVSLTCLVKGFYPSDIAVEWESNGQPENNYKTTPPVLDSDGSFFLYSKLTVDKSRWQQGNVFSCSVMHEALHNHYTQKSLSLSPG
As for B7, the values for the MFI in test [1], in test [2] and in test [3] were 52500 MFI, 69100 MFI and 332000 MFI, respectively. Further, the figures for the “MFI ratio to WT (ΔWT)” value in test [1], in test [2] and in test [3] were 0.16 fold, 3.1 fold and 1.57 fold, respectively.

B8: variant ICOSL IgV-Fc fusion N52L/N57V (Fc fusion)
chain: DTQEKEVRAMVGSDVELSCACPEGSRFDLNDVYVYWQTSESKTVVTYHIPQLSSLEVVDSRYRNRALMSPAGMLRGDFSLRLFNVTPQDEQKFHCLVLSQSLGFQEVLSVEVTLHVAANFSVGSGGGGSEPKSSDKTHTCPPCPAPEAEGAPSVFLFPPKPKDTLMISRTPEVTCVVVDVSHEDPEVKFNWYVDGVEVHNAKTKPREEQYNSTYRVVSVLTVLHQDWLNGKEYKCKVSNKALPAPIEKTISKAKGQPREPQVYTLPPSREEMTKNQVSLTCLVKGFYPSDIAVEWESNGQPENNYKTTPPVLDSDGSFFLYSKLTVDKSRWQQGNVFSCSVMHEALHNHYTQKSLSLSPG
As for B8, the MFI came to 151000 MFI in test [1], 54800 MFI in test [2] and 257000 MFI in test [3]. In addition, the “MFI ratio to WT (ΔWT)” value came out at 0.46 fold in test [1], 2.5 fold in test [2] and 1.21 fold in test [3].

B9: variant ICOSL IgV-Fc fusion N52A/N57Y/Q100A (Fc fusion)
chain: DTQEKEVRAMVGSDVELSCACPEGSRFDLNDVYVYWQTSESKTVVTYHIPQASSLEYVDSRYRNRALMSPAGMLRGDFSLRLFNVTPQDEQKFHCLVLSASLGFQEVLSVEVTLHVAANFSVGSGGGGSEPKSSDKTHTCPPCPAPEAEGAPSVFLFPPKPKDTLMISRTPEVTCVVVDVSHEDPEVKFNWYVDGVEVHNAKTKPREEQYNSTYRVVSVLTVLHQDWLNGKEYKCKVSNKALPAPIEKTISKAKGQPREPQVYTLPPSREEMTKNQVSLTCLVKGFYPSDIAVEWESNGQPENNYKTTPPVLDSDGSFFLYSKLTVDKSRWQQGNVFSCSVMHEALHNHYTQKSLSLSPG
Consider B9, for which the MFI in test [1] is 320000 MFI; in test [2] it was 147000 MFI; in test [3] it was 261000 MFI. Moreover, the “MFI ratio to WT (ΔWT)” value was determined as 0.97 fold in test [1], 6.6 fold in test [2] and 1.23 fold in test [3].

B10: variant ICOSL IgV-Fc fusion N52H/N57Y/Q100K (Fc fusion)
chain: DTQEKEVRAMVGSDVELSCACPEGSRFDLNDVYVYWQTSESKTVVTYHIPQHSSLEYVDSRYRNRALMSPAGMLRGDFSLRLFNVTPQDEQKFHCLVLSKSLGFQEVLSVEVTLHVAANFSVGSGGGGSEPKSSDKTHTCPPCPAPEAEGAPSVFLFPPKPKDTLMISRTPEVTCVVVDVSHEDPEVKFNWYVDGVEVHNAKTKPREEQYNSTYRVVSVLTVLHQDWLNGKEYKCKVSNKALPAPIEKTISKAKGQPREPQVYTLPPSREEMTKNQVSLTCLVKGFYPSDIAVEWESNGQPENNYKTTPPVLDSDGSFFLYSKLTVDKSRWQQGNVFSCSVMHEALHNHYTQKSLSLSPG
B10: the figures for the MFI in test [2] and in test [3] were 142000 MFI and 214000 MFI, respectively.

B11: variant ICOSL IgV-Fc fusion N52G/N57V/Q100G (Fc fusion)
chain: DTQEKEVRAMVGSDVELSCACPEGSRFDLNDVYVYWQTSESKTVVTYHIPQGSSLEVVDSRYRNRALMSPAGMLRGDFSLRLFNVTPQDEQKFHCLVLSGSLGFQEVLSVEVTLHVAANFSVGSGGGGSEPKSSDKTHTCPPCPAPEAEGAPSVFLFPPKPKDTLMISRTPEVTCVVVDVSHEDPEVKFNWYVDGVEVHNAKTKPREEQYNSTYRVVSVLTVLHQDWLNGKEYKCKVSNKALPAPIEKTISKAKGQPREPQVYTLPPSREEMTKNQVSLTCLVKGFYPSDIAVEWESNGQPENNYKTTPPVLDSDGSFFLYSKLTVDKSRWQQGNVFSCSVMHEALHNHYTQKSLSLSPG
As for B11, the MFI in test [1] was 14700 MFI; in test [2], 23700 MFI; in test [3], 260000 MFI. Besides, the “MFI ratio to WT (ΔWT)” value in test [1] stood at 0.04 fold; in test [2], 1.1 fold; in test [3] it was 1.23 fold.
